Experimental data from ChEMBL document CHEMBL2074211, “Modulation of nitrated lipid signaling by multidrug resistance protein 1 (MRP1): glutathione conjugation and MRP1-mediated efflux inhibit nitrolinoleic acid-induced, PPARgamma-dependent transcription activation” (Biochemistry, 2006).

Substrate: CCCCC/C=C\C/C(=C\CCCCCCCC(=O)O[C@@H]1O[C@H](C(=O)O)[C@@H](O)[C@H](O)[C@H]1O)[N+](=O)[O-]
Assay: TP_TRANSPORTER: vesicle uptake in MRP1-expressing membrane vesicles
Assay type: functional, cell membranes, MCF7/MRP1-10

B1: Multidrug resistance-associated protein 1 (Homo sapiens) (protein)
chain: MALRGFCSADGSDPLWDWNVTWNTSNPDFTKCFQNTVLVWVPCFYLWACFPFYFLYLSRHDRGYIQMTPLNKTKTALGFLLWIVCWADLFYSFWERSRGIFLAPVFLVSPTLLGITMLLATFLIQLERRKGVQSSGIMLTFWLVALVCALAILRSKIMTALKEDAQVDLFRDITFYVYFSLLLIQLVLSCFSDRSPLFSETIHDPNPCPESSASFLSRITFWWITGLIVRGYRQPLEGSDLWSLNKEDTSEQVVPVLVKNWKKECAKTRKQPVKVVYSSKDPAQPKESSKVDANEEVEALIVKSPQKEWNPSLFKVLYKTFGPYFLMSFFFKAIHDLMMFSGPQILKLLIKFVNDTKAPDWQGYFYTVLLFVTACLQTLVLHQYFHICFVSGMRIKTAVIGAVYRKALVITNSARKSSTVGEIVNLMSVDAQRFMDLATYINMIWSAPLQVILALYLLWLNLGPSVLAGVAVMVLMVPVNAVMAMKTKTYQVAHMKSKDNRIKLMNEILNGIKVLKLYAWELAFKDKVLAIRQEELKVLKKSAYLSAVGTFTWVCTPFLVALCTFAVYVTIDENNILDAQTAFVSLALFNILRFPLNILPMVISSIVQASVSLKRLRIFLSHEELEPDSIERRPVKDGGGTNSITVRNATFTWARSDPPTLNGITFSIPEGALVAVVGQVGCGKSSLLSALLAEMDKVEGHVAIKGSVAYVPQQAWIQNDSLRENILFGCQLEEPYYRSVIQACALLPDLEILPSGDRTEIGEKGVNLSGGQKQRVSLARAVYSNADIYLFDDPLSAVDAHVGKHIFENVIGPKGMLKNKTRILVTHSMSYLPQVDVIIVMSGGKISEMGSYQELLARDGAFAEFLRTYASTEQEQDAEENGVTGVSGPGKEAKQMENGMLVTDSAGKQLQRQLSSSSSYSGDISRHHNSTAELQKAEAKKEETWKLMEADKAQTGQVKLSVYWDYMKAIGLFISFLSIFLFMCNHVSALASNYWLSLWTDDPIVNGTQEHTKVRLSVYGALGISQGIAVFGYSMAVSIGGILASRCLHVDLLHSILRSPMSFFERTPSGNLVNRFSKELDTVDSMIPEVIKMFMGSLFNVIGACIVILLATPIAAIIIPPLGLIYFFVQRFYVASSRQLKRLESVSRSPVYSHFNETLLGVSVIRAFEEQERFIHQSDLKVDENQKAYYPSIVANRWLAVRLECVGNCIVLFAALFAVISRHSLSAGLVGLSVSYSLQVTTYLNWLVRMSSEMETNIVAVERLKEYSETEKEAPWQIQETAPPSSWPQVGRVEFRNYCLRYREDLDFVLRHINVTINGGEKVGIVGRTGAGKSSLTLGLFRINESAEGEIIIDGINIAKIGLHDLRFKITIIPQDPVLFSGSLRMNLDPFSQYSDEEVWTSLELAHLKDFVSALPDKLDHECAEGGENLSVGQRQLVCLARALLRKTKILVLDEATAAVDLETDDLIQSTIRTQFEDCTVLTIAHRLNTIMDYTRVIVLDKGEIQEYGAPSDLLQQRGLFYSMAKDAGLV
Q: For B1, which Km is on record?
A: 0.75 µM
